The results in this text go back to publication PMC5711770, “Acetylome of Acinetobacter baumannii SK17 Reveals a Highly-Conserved Modification of Histone-Like Protein HU” (Frontiers in Molecular Biosciences, 2017).

The target of data set [1] is HU (wt, C-terminal His-tag) (Acinetobacter baumannii SK17, UniProt A0ABX6CHP0). In words: BLI; BLI: 30 mM Tris pH 7.5, 100 mM NaCl, 0.02% Tween20, 0.5 mg/ml BSA, 25°C; EMSA: same buffer, 37°C 1 h, 250 ng DNA in 10 µl, 1% agarose in TAE; AFM: 10 mM HEPES pH 7.5, 4 mM MgCl2. Particulars: protein: recombinant; chain copies: 2; label: 5'-biotin on strand 1; (only one strand printed).

Data set [2] has as its target HU (wt*, without His-tag) (Acinetobacter baumannii SK17, UniProt A0ABX6CHP0). The description is as above. To be noted: protein: recombinant; tags: none; N-terminal GA remains after TEV cleavage; chain copies: 2; label: 5'-biotin on strand 1; (only one strand printed).
The target in data set [3] is HU(K13ac) (C-terminal His-tag) (Acinetobacter baumannii SK17, UniProt A0ABX6CHP0, K13ac). Briefly: BLI; kon and koff several-fold lower than wt; BLI: 30 mM Tris pH 7.5, 100 mM NaCl, 0.02% Tween20, 0.5 mg/ml BSA, 25°C; EMSA: same buffer, 37°C 1 h, 250 ng DNA in 10 µl, 1% agarose in TAE; AFM: 10 mM HEPES pH 7.5, 4 mM MgCl2. To be noted: protein: recombinant; chain copies: 2; label: 5'-biotin on strand 1; (only one strand printed).

Data set [4] concerns the molecule itself. In words: SEC; analytical size-exclusion chromatography, Superdex 75 10/300 GL, PBS, 0.5 ml/min; size judged against ovalbumin (44 kDa) and myoglobin (17 kDa) markers.

B1: biotin-labeled dsDNA (BLI) (dsDNA)
DNA 1: ATTAATATTTTCTTAAACTAATTTAAAAT
DNA 2: ATTTTAAATTAGTTTAAGAAAATATTAAT
Take B1: the Kd in data set [1] stood at 349 ± 352 nM; in data set [2], 276 ± 143 nM; in data set [3], 184 ± 9.3 nM.

B2: wild-type HU with a C-terminal His-tag (Acinetobacter baumannii SK17 histone-like DNA-binding protein HU) (natural protein, UniProt A0ABX6CHP0 1-90, looked up)
chain: MNKSELIDAIAEKGGVSKTDAGKALDATIASITEALKKGDTVTLVGFGTFSVKERAARTGRNPKTGEELQIKATKVPSFKAGKGLKDSVA
notes: cloned whole between NdeI and XhoI of pET-21a(+); also called wt HU; wt; source: E. coli BL21(DE3), purified (Ni-NTA, cation-exchange chromatography); not shown: His6, C-terminal, kept
As for B2, the “stoichiometry N” value in data set [4] amounted to 2.

B3: HU(K13ac), HU acetylated at Lys13, with a C-terminal His-tag (natural protein, Acinetobacter baumannii SK17, UniProt A0ABX6CHP0 1-90, looked up)
chain: B2 chain
modifications: acetyllysine at residue 13
notes: the codon of Lys13 replaced by an amber codon for site-specific incorporation of acetyllysine; also called Lys13-acetylated HU; not shown: His6, C-terminal, kept
Take B3: in data set [4], the “stoichiometry N” value is 2.
